Usually Kd stands for the concentration at which binding is half-saturated. The term koff denotes the rate constant with which the complex falls apart. Lower therefore signals a long-lived complex. Usually kon stands for the second-order rate constant of association.

Where only a bound is given, the exact number is not on record here.

For assay [1], the target named is SARS-CoV-2 S protein, full length, wild type (on pseudovirus, authentic virus hCoV-19/Taiwan/4/2020 (SARS-CoV-2, UniProt P0DTC2 14-1273)). In words: cell-based or functional assay.
Assay [2] addresses SARS-COV-2 RBD-His protein (SARS-CoV-2, UniProt P0DTC2 319-541).

B1: RBD-chAb-1 (antibody, V domains shown)
VH: EVQLQQSGPQLVRPGASMKISCKASGYSFTTYWMHWVKQRPGQGLQWIGMIDPSDSETRLNQKFKDKATLTVDKSSSTAYMQLSSPTSEDSAVYYCARDFDYDRTMDYWGQGTSVTVSS
VL: DIVMSQSPSSLAVSVGEKVTMSCKSSQSLLFSSSQKNYLAWYQQKAGQSPKLLIFWASTRESGVPDRFTGSGSGTDFTLTISSVKAEDLAIYYCKQYYKYPLTFGAGTKLDIK
B1 displayed a PRNT50 in assay [1] of under 36 ng/mL.

B2: RBD-chAb-15 (antibody, V domains shown)
VH: EVQLEESGPGLVQPSQSLSITCTVSDFSLTTYGVHWVRQSPGKGLEWLGVIWSGGSTDYNAAFISRLSISKDNSKSQVFFKMNSLQTNDTAIYYCARMGDGYYVGAMDYWGQGTSVTVSS
VL: DIQLTQSPAILSVSPGERVSFSCRASQSIGTSIHWYQQRTNGSPRHLIKYASESISGIPSRFSGSGSGTDFTLTINGVESEDIADYYCQQGHNWPLTFGAGTKLDIK
On to B2, for which the PRNT50 in assay [1] is under 36 ng/mL.

B3: RBD-chAb-28 (antibody, V domains shown)
VH: QVQLQQPGTELVMPGASVKMSCKASGYTFTDYYLHWMKQRPGQGLEWIGAIDSSDSYTDYNQNFKGKATLTVDESSSTAYMHLSSLTSEDSAVYYCARGKDAYDRRPWFAYWGQGTLVTVSA
VL: DIQMTQTTSSLSASLGDRVTISCSASQGIRYYLNWYQQKPDGTVKLLIYYTSNLHSGVPSRFSGSGSGTDYSLTISNLEPEDIATYYCQQYNKLPYTFGGGTKLDIK
Turning to B3, the “pseudovirus neutralization assay IC50” value in assay [1] came to 8.75 ng/mL.

B4: RBD-chAb-45 (antibody, V domains shown)
VH: EVQLQQSGPELVKPGASVKISCKTSGYTFTEYTIYWVKQSLGKSLEWIGGNNPNNDDTTYKQFFKGKATLTVDKSSSTAYMELRSLTSEDSAVYYCARDGYPYYYALDFWGQGTSVTVSS
VL: DILMTQSQKFMSTSVGDRVSVTCKSSQNVGTNVAWYQQKPGQSPKALIYSASYRYSGVPDHFTGSGSGTDFTLTISNVQSADLAEYFCQQYNNYPWTFGGGTKLDIK
As for B4, in assay [1], the “pseudovirus neutralization assay IC50” value amounted to 2.3 ng/mL. In assay [2], this molecule showed a Kd of 0.282 nM, a koff of 0.000282 s⁻¹ and a kon of 997000 M⁻¹ s⁻¹.

B5: RBD-chAb-51 (antibody, V domains shown)
VH: EVQLQQSGPELVKPGASAKISCKTSGYTFTEYTMYWVKQSHGKSLEWIGGINPNNGDTTYNQTFKGKATLTVDKSSSTAYMELRSLTSEDSAVYYCARDGYPFYYALDYWGQGISVTVSS
VL: DIVMTQSQKFMSTSVGDRVSVTCKARQIVGTNVAWYQQKPGQSPKALIYSASYRYSGVPDRFTGSGSGTDFTLTITNVHSEDLAEFFCHQYNSYPWTFGGGTKLDIK
B5: in assay [1], the “pseudovirus neutralization assay IC50” value amounted to 0.98 ng/mL.

(Values after patent publication US20250270296A1 (ACADEMIA SINICA, published 2025).)
